Measurements reported in PMC9482650, “Quantitative fragmentomics allow affinity mapping of interactomes” (Nature Communications, 2022).

T1: DLG3_1, Q92796
T1 sequence (Q92796 125-227, limits assumed, looked up): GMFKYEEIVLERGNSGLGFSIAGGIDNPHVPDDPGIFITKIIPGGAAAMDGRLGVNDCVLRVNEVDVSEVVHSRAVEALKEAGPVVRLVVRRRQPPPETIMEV

T2: DFNB31_2, Q9P202
T2 sequence (Q9P202 274-371, limits assumed, looked up): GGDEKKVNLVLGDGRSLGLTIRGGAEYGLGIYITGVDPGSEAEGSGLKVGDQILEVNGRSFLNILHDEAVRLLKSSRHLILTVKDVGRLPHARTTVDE

T3: SIPA1L2, Q9P2F8
T3 sequence (Q9P2F8 945-1036, limits assumed, looked up): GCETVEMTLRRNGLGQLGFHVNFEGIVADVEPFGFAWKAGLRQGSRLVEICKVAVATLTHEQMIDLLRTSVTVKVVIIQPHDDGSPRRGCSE

T4: LRRC7, Q96NW7
T4 sequence (Q96NW7 1440-1537, limits assumed, looked up): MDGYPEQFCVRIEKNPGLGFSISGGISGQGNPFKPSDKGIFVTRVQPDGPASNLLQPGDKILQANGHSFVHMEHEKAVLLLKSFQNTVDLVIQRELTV

T5: PTPN13_1, Q12923
T5 sequence (Q12923 1088-1188, limits assumed, looked up): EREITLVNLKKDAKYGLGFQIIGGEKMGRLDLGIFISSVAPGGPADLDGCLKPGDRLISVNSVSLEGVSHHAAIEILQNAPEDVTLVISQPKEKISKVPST

T6: NHERF3_1, Q5T2W1
T6 sequence (Q5T2W1 4-100, limits assumed, looked up): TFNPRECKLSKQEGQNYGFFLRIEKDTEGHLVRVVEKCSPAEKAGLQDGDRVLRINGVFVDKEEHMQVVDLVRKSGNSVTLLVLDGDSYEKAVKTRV

T7: GRIP1_7, Q9Y3R0
T7 sequence (Q9Y3R0 999-1096, limits assumed, looked up): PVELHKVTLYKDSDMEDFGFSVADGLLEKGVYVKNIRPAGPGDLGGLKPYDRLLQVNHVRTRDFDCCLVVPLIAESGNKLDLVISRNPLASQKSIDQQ

T8: NHERF3_3, Q5T2W1
T8 sequence (Q5T2W1 238-333, limits assumed, looked up): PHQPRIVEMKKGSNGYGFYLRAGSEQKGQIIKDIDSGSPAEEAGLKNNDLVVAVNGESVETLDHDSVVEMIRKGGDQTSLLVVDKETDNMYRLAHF

T9: APBA2_2, Q99767
T9 sequence (Q99767 654-744, limits assumed, looked up): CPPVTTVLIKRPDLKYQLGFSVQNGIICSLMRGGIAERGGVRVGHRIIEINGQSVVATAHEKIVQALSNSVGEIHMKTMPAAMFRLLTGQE

T10: APBA2_1, Q99767
T10 sequence (Q99767 563-664, limits assumed, looked up): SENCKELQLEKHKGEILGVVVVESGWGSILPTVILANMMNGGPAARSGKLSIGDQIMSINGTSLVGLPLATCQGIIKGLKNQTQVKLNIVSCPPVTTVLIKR

T11: ARHGAP21, Q5T5U3
T11 sequence (Q5T5U3 45-169, limits assumed, looked up): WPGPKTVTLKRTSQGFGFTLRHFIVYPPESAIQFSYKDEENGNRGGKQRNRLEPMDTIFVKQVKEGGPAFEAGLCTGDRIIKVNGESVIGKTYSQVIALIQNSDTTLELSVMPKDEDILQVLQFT

T12: NHERF3_4, Q5T2W1
T12 sequence (Q5T2W1 373-468, limits assumed, looked up): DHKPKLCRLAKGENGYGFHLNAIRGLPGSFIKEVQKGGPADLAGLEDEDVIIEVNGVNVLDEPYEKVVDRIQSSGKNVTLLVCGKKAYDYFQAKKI

B1: TNRC6B, Q9UPQ9 (peptide)
chain: DLLGGGSDSI
B2: SORCS3, Q9UPU3 (peptide)
chain: TKEIPNCTSV
B3: CLDN20, P56880 (peptide)
chain: NSTHNLKDYV
B4: PRLHR, P49683 (peptide)
chain: GQNMTVSVVI

Key:
Assay in all cases: holdup assay
Design in all cases: key: below the threshold = too weak to quantify, mostly under pKd 3.1 to 4
Conditions in all cases: plain residues with an end cap or a label only (N-terminal biotin on a linker: ado-ado)
[1] = molecular target: T1, DLG3_1, Q92796
[2] = molecular target: DLG1_2, Q12959
[3] = molecular target: Inadl_5, Q8NI35
[4] = molecular target: Inadl_2, Q8NI35
[5] = molecular target: T2, DFNB31_2, Q9P202
[6] = molecular target: DLG1_3, Q12959
[7] = molecular target: T3, SIPA1L2, Q9P2F8
[8] = molecular target: T4, LRRC7, Q96NW7
[9] = molecular target: GRID2IP_1, A4D2P6
[10] = molecular target: T5, PTPN13_1, Q12923
[11] = molecular target: T6, NHERF3_1, Q5T2W1
[12] = molecular target: GIPC2, Q8TF65
[13] = molecular target: T7, GRIP1_7, Q9Y3R0
[14] = molecular target: DLG2_2, Q15700
[15] = molecular target: T8, NHERF3_3, Q5T2W1
[16] = molecular target: FRMPD4, Q14CM0
[17] = molecular target: MAGI2_3, Q86UL8
[18] = molecular target: GRIP2_7, Q9C0E4
[19] = molecular target: T9, APBA2_2, Q99767
[20] = molecular target: HTRA2, O43464
[21] = molecular target: T10, APBA2_1, Q99767
[22] = molecular target: FRMPD2_1, Q68DX3
[23] = molecular target: IL16_4, Q14005
[24] = molecular target: MAGI2_2, Q86UL8
[25] = molecular target: T11, ARHGAP21, Q5T5U3
[26] = molecular target: T12, NHERF3_4, Q5T2W1

DLG2_2, Q15700, sequence (Q15700 189-283): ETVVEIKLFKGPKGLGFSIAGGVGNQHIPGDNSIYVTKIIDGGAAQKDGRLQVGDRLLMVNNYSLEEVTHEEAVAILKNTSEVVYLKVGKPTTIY
DLG1_3, Q12959, sequence (Q12959 457-571): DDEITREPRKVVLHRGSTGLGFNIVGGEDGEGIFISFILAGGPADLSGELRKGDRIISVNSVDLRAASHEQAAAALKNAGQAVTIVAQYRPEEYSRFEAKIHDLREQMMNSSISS
FRMPD2_1, Q68DX3, sequence (Q68DX3 770-861): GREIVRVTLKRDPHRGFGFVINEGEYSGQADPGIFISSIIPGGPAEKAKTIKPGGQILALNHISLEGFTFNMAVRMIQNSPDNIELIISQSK
MAGI2_3, Q86UL8, sequence (Q86UL8 600-682): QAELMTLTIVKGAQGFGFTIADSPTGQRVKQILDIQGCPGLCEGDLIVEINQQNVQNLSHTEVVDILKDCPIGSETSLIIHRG
DLG1_2, Q12959, sequence (Q12959 314-412): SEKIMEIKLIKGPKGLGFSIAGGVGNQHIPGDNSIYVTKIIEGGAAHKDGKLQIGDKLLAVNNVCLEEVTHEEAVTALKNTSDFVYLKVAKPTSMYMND
GRIP2_7, Q9C0E4, sequence (Q9C0E4 934-1023): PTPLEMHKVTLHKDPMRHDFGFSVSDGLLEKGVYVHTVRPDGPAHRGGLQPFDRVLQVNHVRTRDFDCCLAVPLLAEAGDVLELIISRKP
Inadl_2, Q8NI35, sequence (Q8NI35 238-335): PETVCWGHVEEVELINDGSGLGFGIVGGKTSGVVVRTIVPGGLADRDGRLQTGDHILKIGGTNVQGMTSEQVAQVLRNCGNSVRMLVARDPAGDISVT
HTRA2, O43464, sequence (O43464 355-458): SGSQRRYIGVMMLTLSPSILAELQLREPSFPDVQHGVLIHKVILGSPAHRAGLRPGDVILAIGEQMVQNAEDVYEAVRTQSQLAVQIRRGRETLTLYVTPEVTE
Inadl_5, Q8NI35, sequence (Q8NI35 673-780): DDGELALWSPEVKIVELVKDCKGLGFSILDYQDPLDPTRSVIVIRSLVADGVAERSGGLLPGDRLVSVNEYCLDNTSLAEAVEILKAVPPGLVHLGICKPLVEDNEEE
FRMPD4, Q14CM0, sequence (Q14CM0 67-160): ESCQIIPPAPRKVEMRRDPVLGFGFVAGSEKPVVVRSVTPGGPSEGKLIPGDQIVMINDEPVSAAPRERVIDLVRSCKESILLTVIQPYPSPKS
GRID2IP_1, A4D2P6, sequence (A4D2P6 1-87): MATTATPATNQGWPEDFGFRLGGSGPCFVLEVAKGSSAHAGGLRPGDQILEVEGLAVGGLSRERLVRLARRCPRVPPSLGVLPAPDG
GIPC2, Q8TF65, sequence (Q8TF65 112-203): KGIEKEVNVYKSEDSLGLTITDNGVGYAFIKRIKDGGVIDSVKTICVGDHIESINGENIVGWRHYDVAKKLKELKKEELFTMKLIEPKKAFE
IL16_4, Q14005, sequence (Q14005 1229-1329): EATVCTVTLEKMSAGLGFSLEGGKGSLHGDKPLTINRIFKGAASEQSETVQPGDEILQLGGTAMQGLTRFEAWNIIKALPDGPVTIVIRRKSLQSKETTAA
MAGI2_2, Q86UL8, sequence (Q86UL8 410-522): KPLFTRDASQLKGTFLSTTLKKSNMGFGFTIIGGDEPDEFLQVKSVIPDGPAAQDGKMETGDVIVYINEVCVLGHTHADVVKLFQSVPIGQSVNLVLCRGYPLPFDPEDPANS

| Binder | pKd [1] | pKd [2] | pKd [3] | pKd [4] | pKd [5] | pKd [6] | pKd [7] | pKd [8] | pKd [9] | pKd [10] | pKd [11] | pKd [12] | pKd [13] | pKd [14] | pKd [15] | pKd [16] | pKd [17] | pKd [18] | pKd [19] | pKd [20] | further results |
| --- | --- | --- | --- | --- | --- | --- | --- | --- | --- | --- | --- | --- | --- | --- | --- | --- | --- | --- | --- | --- | --- |
| B1 | below the threshold | below the threshold | below the threshold | below the threshold | below the threshold | below the threshold | below the threshold | below the threshold | below the threshold | below the threshold | below the threshold | 3.55 | below the threshold | below the threshold | below the threshold | 3.56 | below the threshold | below the threshold | below the threshold | below the threshold | pKd [21]: below the threshold; pKd [22]: below the threshold; pKd [23]: 3.61; pKd [24]: below the threshold; pKd [25]: below the threshold; pKd [26]: below the threshold |
| B2 | 3.64 | 4.43 | below the threshold | below the threshold | below the threshold | 4.14 | 3.49 | below the threshold | below the threshold | below the threshold | 4.36 | 3.83 | below the threshold | 4.1 | below the threshold | 3.65 | 3.98 | below the threshold | below the threshold | below the threshold | pKd [21]: below the threshold; pKd [22]: below the threshold; pKd [23]: below the threshold; pKd [24]: 4.29; pKd [25]: 3.86; pKd [26]: below the threshold |
| B3 | below the threshold | 3.5 | below the threshold | below the threshold | below the threshold | below the threshold | below the threshold | below the threshold | below the threshold | below the threshold | 4.19 | below the threshold | below the threshold | below the threshold | below the threshold | below the threshold | below the threshold | below the threshold | below the threshold | below the threshold | pKd [21]: below the threshold; pKd [22]: below the threshold; pKd [23]: 3.65; pKd [24]: below the threshold; pKd [25]: 3.89; pKd [26]: below the threshold |
| B4 | below the threshold | below the threshold | below the threshold | below the threshold | below the threshold | below the threshold | 3.54 | below the threshold | below the threshold | below the threshold | below the threshold | below the threshold | below the threshold | below the threshold | 4.02 | below the threshold | below the threshold | below the threshold | below the threshold | below the threshold | pKd [21]: below the threshold; pKd [22]: below the threshold; pKd [23]: 3.62; pKd [24]: below the threshold; pKd [25]: below the threshold; pKd [26]: 3.73 |
